Source: the supplement of paper PMC10899765

Key:
Settings in all cases: 20 nM; 72 h
MCF10A [1] = experiment: one-nucleolus phenotype percent effect (relative to siNT 0% and siNOL11 100%); higher = more cells with one nucleolus (ribosome biogenesis inhibition)
Procedure: (§1)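 After 72 h, cells were fixed and stained with Hoechst and anti-fibrillarin, and nucleoli per nucleus were counted with CellProfiler. Values are plate-adjusted percent effect for the one-nucleolus and 5+ nucleoli phenotypes, normalised to siNT (0%) and to the positive controls siNOL11 or siKIF11 (100%), as the mean of biological triplicates. Percent viability is the nuclei count relative to siNT.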

MCF10A [2] = experiment: percent viability (nuclei count relative to siNT); higher = more viable cells
Procedure: as §1

MCF10A [3] = experiment: 5+ nucleoli phenotype percent effect (relative to siNT 0% and siKIF11 100%); higher = more cells with five or more nucleoli
Procedure: as §1

| Sequence | one-nucleolus phenotype percent effect (MCF10A [1]) [%] | percent viability (MCF10A [2]) [%] | 5+ nucleoli phenotype percent effect (MCF10A [3]) [%] |
| --- | --- | --- | --- |
| GACACUAGGCAUGUGAGUGAUU [hsa-miR-4704-5p] | -20.2 | 65 | 0.429 |
| GACAGAGUGCCACUUACUGAA [hsa-miR-4797-5p] | 41.8 | 23.7 | -25.1 |
| GACAUUCAGACUACCUG [hsa-miR-4262] | 6.49 | 86.4 | -5.77 |
| GACCGAGAGGGCCUCGGCUGU [hsa-miR-4523] | -18 | 67.7 | 18.2 |
| GACCUGGACAUGUUUGUGCCCAGU [hsa-miR-619] | -30.8 | 128 | 64.8 |
| GACUAUAGAACUUUCCCCCUCA [hsa-miR-625-3p] | -5.42 | 104 | 19.1 |
| GACUCACUCACAGGAUUGUGCA [hsa-miR-3680-5p] | -12 | 58.9 | 39.7 |
| GACUGACACCUCUUUGGGUGAA [hsa-miR-888-3p] | -18.1 | 84.1 | 8.85 |
| GACUGGACAAGCUGAGGAA [hsa-miR-3654] | -25.9 | 99.2 | 68.1 |
| GAGAAAUGCUGGACUAAUCUGC [hsa-miR-5680] | -20.6 | 93.7 | 27.3 |
| GAGACAGGUUCAUGCUGCUA [hsa-miR-4524b-3p] | 37.3 | 25.8 | -32.4 |
| GAGACUGGGGUGGGGCC [hsa-miR-4463] | -14.3 | 64.8 | -7.37 |
| GAGAGCAGUGUGUGUUGCCUGG [hsa-miR-2278] | 40.5 | 30.7 | -44.7 |
| GAGAGGAACAUGGGCUCAGGACA [hsa-miR-6859-5p] | -24.3 | 75.5 | 41.6 |
| GAGCCAGUGGUGAGACAGUGA [hsa-miR-4676-5p] | -15.1 | 53.3 | -5.34 |
| GAGCCAGUUGGACAGGAGC [hsa-miR-575] | -23.7 | 129 | 3.98 |
| GAGCCCCUCUCUGCUCUCCAG [hsa-miR-6769a-3p] | -15.3 | 92.9 | 9.99 |
| GAGCUUAUUCAUAAAAGUGCAG [hsa-miR-590-5p] | -0.31 | 66.5 | -1.22 |
| GAGCUUGGAUGAGCUGGGCUGA [hsa-miR-4538] | 14.4 | 25.3 | -29.6 |
| GAGCUUGGUCUGUAGCGGUU [hsa-miR-4453] | 33.6 | 9.97 | -29.1 |
| GAGCUUUUGGCCCGGGUUAUAC [hsa-miR-208a-5p] | -31 | 216 | 45.1 |
| GAGGAAACUGAAGCUGAGAGGG [hsa-miR-4496] | -13.7 | 88.3 | 40.4 |
| GAGGCAGAAGCAGGAUGACA [hsa-miR-1910-3p] | 25.3 | 38.6 | -17.5 |
| GAGGCUGAAGGAAGAUGG [hsa-miR-4419b] | 21.1 | 58.3 | -30.7 |
| GAGGCUGAGCUGAGGAG [hsa-miR-4478] | 35.1 | 22.9 | -17.6 |
| GAGGCUGAUGUGAGUAGACCACU [hsa-miR-3929] | 14.1 | 30.5 | -13.8 |
| GAGGGCAGAGCCAGCUUCCUGA [hsa-miR-7843-5p] | 16.5 | 32.5 | 13.7 |
| GAGGGCAGCGUGGGUGUGGCGGA [hsa-miR-4632-5p] | 0.575 | 64.3 | 13.1 |
| GAGGGUCUUGGGAGGGAUGUGAC [hsa-miR-1182] | -20.9 | 104 | 44.5 |
| GAGGGUUGGGUGGAGGCUCUCC [hsa-miR-296-3p] | 20.8 | 57.1 | 9.3 |
